We go through one protein from publication PMC8709496, “Highly Active Thermophilic L-Asparaginase from Melioribacter roseus Represents a Novel Large Group of Type II Bacterial L-Asparaginases from Chlorobi-Ignavibacteriae-Bacteroidetes Clade” (International Journal of Molecular Sciences, 2021).

Usually Km stands for the substrate concentration at which the rate is half of its maximum.

Substrate in the data set: NC(=O)C[C@H](N)C(=O)O
Nature of the data set: purified protein. The data set is classed as biochemical, Melioribacter roseus. The following applies: borate buffer 0.025 M, pH 9.3, 70 °C.

B1: MrAII (type II L-asparaginase from M. roseus) (Melioribacter roseus P3M-2) (protein)
chain: MKNILIIFTGGTFSMKIDRETNSAVPYYHGEELLKIIPEADKKANISVYEFGNYPGPHMTPELMLELSEIVKKYINQNDTDGIIITHGTDTLEETAYFLDLTVKTEKPIVVIGAMKTSSEPDWDGPKNLLDAISIINNPNSGNMGVLVCLNGEINAASEVTKTHTEDIETFHSLDFGSLGFVENDRVIFNRLPRKLETFETAKINSNVDLIKVYAGMNEKFFKFSADSGADGLVVEAMGVGNVPPKAFEGIKYVIEKGIPVVLVSRCPAGETLDIYGYEGAGKWLKKAGVIFSDYLNGQKARIKLIVCLGITNEIAKLRSMFEDEQ
notes: synthetic native gene (981 nt, printed as 327 aa) in pET-28a(+) NheI/SalI, E. coli BL21(DE3); Q-Sepharose purified
For the protein B1, the Km was determined as 1400 µM.
